Laboratory results: publication PMC8373075 (Nucleic Acids Research, 2021)

Target: T1, FLAG-CTIF-F460A (human, UniProt O43310 1-598, F460A)
T1 sequence (looked up): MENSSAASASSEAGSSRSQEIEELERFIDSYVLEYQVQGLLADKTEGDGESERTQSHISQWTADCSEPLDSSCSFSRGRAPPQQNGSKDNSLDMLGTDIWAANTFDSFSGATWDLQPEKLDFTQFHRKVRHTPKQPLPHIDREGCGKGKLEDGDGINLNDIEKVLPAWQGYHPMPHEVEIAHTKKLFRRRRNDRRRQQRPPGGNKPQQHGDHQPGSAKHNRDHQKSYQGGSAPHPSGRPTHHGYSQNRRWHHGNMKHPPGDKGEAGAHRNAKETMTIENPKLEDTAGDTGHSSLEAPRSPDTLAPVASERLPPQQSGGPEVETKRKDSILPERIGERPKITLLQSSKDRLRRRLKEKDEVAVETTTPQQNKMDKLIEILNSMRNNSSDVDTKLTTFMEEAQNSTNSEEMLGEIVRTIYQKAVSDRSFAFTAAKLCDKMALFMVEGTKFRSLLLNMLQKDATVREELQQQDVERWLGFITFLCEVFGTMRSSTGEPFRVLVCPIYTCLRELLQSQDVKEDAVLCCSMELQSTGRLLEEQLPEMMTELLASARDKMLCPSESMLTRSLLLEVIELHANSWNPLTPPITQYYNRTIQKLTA
Experiment: co-IP

fold change of the co-immunoprecipitated amount against the IP of CTIF-WT: ~2.8 fold
B1: endogenous CBP80 (natural protein, human (endogenous in HEK293T), UniProt Q09161 1-790, looked up)
chain: MSRRRHSDENDGGQPHKRRKTSDANETEDHLESLICKVGEKSACSLESNLEGLAGVLEADLPNYKSKILRLLCTVARLLPEKLTIYTTLVGLLNARNYNFGGEFVEAMIRQLKESLKANNYNEAVYLVRFLSDLVNCHVIAAPSMVAMFENFVSVTQEEDVPQVRRDWYVYAFLSSLPWVGKELYEKKDAEMDRIFANTESYLKRRQKTHVPMLQVWTADKPHPQEEYLDCLWAQIQKLKKDRWQERHILRPYLAFDSILCEALQHNLPPFTPPPHTEDSVYPMPRVIFRMFDYTDDPEGPVMPGSHSVERFVIEENLHCIIKSHWKERKTCAAQLVSYPGKNKIPLNYHIVEVIFAELFQLPAPPHIDVMYTTLLIELCKLQPGSLPQVLAQATEMLYMRLDTMNTTCVDRFINWFSHHLSNFQFRWSWEDWSDCLSQDPESPKPKFVREVLEKCMRLSYHQRILDIVPPTFSALCPANPTCIYKYGDESSNSLPGHSVALCLAVAFKSKATNDEIFSILKDVPNPNQDDDDDEGFSFNPLKIEVFVQTLLHLAAKSFSHSFSALAKFHEVFKTLAESDEGKLHVLRVMFEVWRNHPQMIAVLVDKMIRTQIVDCAAVANWIFSSELSRDFTRLFVWEILHSTIRKMNKHVLKIQKELEEAKEKLARQHKRRSDDDDRSSDRKDGVLEEQIERLQEKVESAQSEQKNLFLVIFQRFIMILTEHLVRCETDGTSVLTPWYKNCIERLQQIFLQHHQIIQQYMVTLENLLFTAELDPHILAVFQQFCALQA
